Reference: patent publication US20170131285A1 (INSERM INSTITUT NATIONAL DE LA SANTE ET DE LA RECHERCHE …, published 2017)

Biological target: T1, recombinant HSP70 (Heat Shock 70 kDa Protein) (human, UniProt P0DMV8 1-641)
T1 construct: also called HSP72; human HSP70
Assay: BLI (Octet Red), biotinylated A8 on streptavidin sensors, HSP70 in solution, 1:1 model global fit
Experimental: Protein-protein interaction experiments were conducted at 25° C. in PBS with an Octet Red instrument (Forte Bio, Menlo Park, Calif., USA) by biolayer interferometry (BLI). The ligand (cmHSP70 or A8 or TLR2) was biotinylated using EZ-Link NHS-PEG₄-biotin (Thermo Fisher Scientific, Bonn, Germany) according to the manufacturer's protocol and immobilized at a concentration of 20 μg/ml on streptavidin sensors (ForteBio, Menlo Park, Calif., USA). These functionalized biosensors were dipped into black Greiner 96-well microplates agitated at […] and filled with a solution of 200 μL containing the analyte. All sensorgrams were corrected for baseline drift by subtracting a control sensor exposed to running buffer only. Each KD was determined with a 1:1 stoichiometry model using a global fit with Rmax unlinked by sensor (Forte Bio, Data analysis software version 7.1.0.89).
Protein-protein interaction experiments were conducted with an Octet Red instrument (ForteBio, USA). The ligand (A8 or TLR2) was biotinylated using EZ-Link NHS-PEG₄-biotin (2 nM, 30 min, RT, Thermo Fisher Scientific, Germany) and immobilized on streptavidin sensors (96-well plate black, ForteBio, USA). […] Each KD was determined with a 1:1 stoichiometry model using a global fit with Rmax unlinked by sensor (ForteBio, Data analysis software version 7.1.0.89).

T1 sequence (P0DMV8 whole entry): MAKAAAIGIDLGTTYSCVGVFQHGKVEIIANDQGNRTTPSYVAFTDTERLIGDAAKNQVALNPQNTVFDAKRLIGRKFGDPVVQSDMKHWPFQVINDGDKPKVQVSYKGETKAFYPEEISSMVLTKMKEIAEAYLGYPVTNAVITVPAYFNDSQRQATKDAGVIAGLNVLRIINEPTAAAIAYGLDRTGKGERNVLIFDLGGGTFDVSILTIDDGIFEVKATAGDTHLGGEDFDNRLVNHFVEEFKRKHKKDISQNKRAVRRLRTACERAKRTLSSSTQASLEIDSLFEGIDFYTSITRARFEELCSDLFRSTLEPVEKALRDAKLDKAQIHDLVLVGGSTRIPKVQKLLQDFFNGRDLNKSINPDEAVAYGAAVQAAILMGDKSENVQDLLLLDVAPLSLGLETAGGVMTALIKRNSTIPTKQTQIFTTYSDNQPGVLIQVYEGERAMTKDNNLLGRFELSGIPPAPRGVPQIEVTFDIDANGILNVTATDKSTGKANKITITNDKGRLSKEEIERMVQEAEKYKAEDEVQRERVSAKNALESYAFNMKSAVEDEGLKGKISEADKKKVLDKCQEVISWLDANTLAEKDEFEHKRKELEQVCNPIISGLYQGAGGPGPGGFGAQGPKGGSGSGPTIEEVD

B1: peptide aptamer A8 (peptide)
peptide: SPWPRPTY
modifications: biotinylated with EZ-Link NHS-PEG4-biotin when immobilised on streptavidin sensors for BLI (site not stated); no modification stated for the solution assays
notes: also called A8 peptide aptamer; HSP70 peptide aptamer A8
Q: With B1 as the binder, how does the Kd read?
A: 2.2 nM
